Common to all, as to experiment: ProtoArray, GST-treated control array;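 also: human protein microarray (about 9500 recombinant proteins) incubated overnight with GST alone plus SAM cofactor as the negative control for G9a SET domain methylation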
Experiment [1] concerns the target T1, MOBKL3-Mps one binder kinase activator-like 3 (human, UniProt Q9Y3A3 1-225, limits assumed).
T1 sequence (looked up): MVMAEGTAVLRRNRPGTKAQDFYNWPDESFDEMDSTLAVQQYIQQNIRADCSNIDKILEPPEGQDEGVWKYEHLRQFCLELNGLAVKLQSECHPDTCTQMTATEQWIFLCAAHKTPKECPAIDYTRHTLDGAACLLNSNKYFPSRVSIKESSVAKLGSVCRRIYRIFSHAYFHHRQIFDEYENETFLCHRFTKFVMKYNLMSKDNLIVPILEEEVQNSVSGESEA

The target of experiment [2] is FTH1-Ferritin heavy chain (human, UniProt P02794 1-183).
FTH1-Ferritin heavy chain, sequence (P02794 whole entry, the tested form may be a part): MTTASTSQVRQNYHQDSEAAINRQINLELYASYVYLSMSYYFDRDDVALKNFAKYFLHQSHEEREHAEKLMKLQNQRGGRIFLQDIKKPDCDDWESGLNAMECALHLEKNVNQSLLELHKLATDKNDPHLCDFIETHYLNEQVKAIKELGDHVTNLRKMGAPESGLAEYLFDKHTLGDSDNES
The target in experiment [3] is T2, KCTD7-potassium channel tetramerisation domain containing 7 (KCTD7) (human, UniProt Q96MP8 1-289, limits assumed).
T2 sequence (looked up): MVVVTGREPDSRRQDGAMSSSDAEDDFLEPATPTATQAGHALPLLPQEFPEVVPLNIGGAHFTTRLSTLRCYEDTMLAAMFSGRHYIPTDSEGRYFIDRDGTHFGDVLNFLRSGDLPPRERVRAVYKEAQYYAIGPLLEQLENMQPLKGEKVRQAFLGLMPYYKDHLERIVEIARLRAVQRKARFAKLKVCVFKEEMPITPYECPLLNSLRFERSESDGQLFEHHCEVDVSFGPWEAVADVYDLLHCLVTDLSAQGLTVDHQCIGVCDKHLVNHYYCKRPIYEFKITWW

Experiment [4] has as its target LOC145788-PREDICTED: Homo sapiens hypothetical LOC145788 (LOC145788) (human).
Experiment [5] addresses HPCAL4-hippocalcin like 4 (HPCAL4) (human, UniProt Q9UM19 1-191).
Experiment [6] has as its target T3, C12orf60-Uncharacterized protein C12orf60 (human, UniProt Q5U649 1-245).
T3 sequence (looked up): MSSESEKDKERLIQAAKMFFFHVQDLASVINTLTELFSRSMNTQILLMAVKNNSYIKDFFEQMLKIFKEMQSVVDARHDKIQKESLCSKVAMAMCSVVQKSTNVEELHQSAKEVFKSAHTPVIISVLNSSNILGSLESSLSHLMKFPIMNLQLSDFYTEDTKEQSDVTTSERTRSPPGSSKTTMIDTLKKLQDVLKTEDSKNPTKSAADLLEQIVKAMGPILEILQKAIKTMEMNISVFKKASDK

The target in experiment [7] is T4, SMYD3-SET and MYND domain containing 3 (SMYD3) (human, UniProt Q9H7B4 1-428, limits assumed).
T4 sequence (looked up): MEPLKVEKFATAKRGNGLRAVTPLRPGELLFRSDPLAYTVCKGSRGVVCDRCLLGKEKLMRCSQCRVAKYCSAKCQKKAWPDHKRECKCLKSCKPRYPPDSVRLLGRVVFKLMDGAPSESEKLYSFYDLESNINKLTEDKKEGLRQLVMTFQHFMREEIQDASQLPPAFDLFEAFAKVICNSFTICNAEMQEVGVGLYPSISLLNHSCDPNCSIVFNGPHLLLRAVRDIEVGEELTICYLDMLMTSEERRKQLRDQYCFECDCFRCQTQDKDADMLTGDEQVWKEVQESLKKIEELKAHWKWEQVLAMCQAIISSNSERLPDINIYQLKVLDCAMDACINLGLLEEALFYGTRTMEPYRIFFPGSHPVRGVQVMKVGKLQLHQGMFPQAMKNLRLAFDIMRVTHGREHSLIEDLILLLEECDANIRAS

Experiment [8] deals with DGKA-diacylglycerol kinase, alpha 80 kDa (DGKA) (human, UniProt P23743 1-735).
DGKA-diacylglycerol kinase, alpha 80 kDa (DGKA), sequence (P23743 whole entry): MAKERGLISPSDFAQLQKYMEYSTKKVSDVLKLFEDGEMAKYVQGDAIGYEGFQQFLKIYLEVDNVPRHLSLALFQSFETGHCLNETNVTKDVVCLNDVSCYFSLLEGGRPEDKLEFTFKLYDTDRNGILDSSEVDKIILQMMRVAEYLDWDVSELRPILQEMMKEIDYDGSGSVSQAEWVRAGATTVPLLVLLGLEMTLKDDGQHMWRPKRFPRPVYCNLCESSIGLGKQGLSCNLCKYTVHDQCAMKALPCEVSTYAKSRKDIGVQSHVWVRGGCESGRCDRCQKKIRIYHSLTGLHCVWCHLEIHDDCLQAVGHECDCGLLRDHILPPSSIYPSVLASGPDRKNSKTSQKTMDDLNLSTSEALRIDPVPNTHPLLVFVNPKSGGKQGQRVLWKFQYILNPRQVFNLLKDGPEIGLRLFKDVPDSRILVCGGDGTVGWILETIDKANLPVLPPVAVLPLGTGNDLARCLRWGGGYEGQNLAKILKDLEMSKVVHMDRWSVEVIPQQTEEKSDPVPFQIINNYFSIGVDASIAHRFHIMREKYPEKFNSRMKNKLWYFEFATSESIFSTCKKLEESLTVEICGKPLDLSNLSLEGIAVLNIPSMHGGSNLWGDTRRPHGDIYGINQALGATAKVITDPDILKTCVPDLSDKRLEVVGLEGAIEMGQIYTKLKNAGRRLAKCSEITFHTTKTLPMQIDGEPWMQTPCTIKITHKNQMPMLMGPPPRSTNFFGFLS
The target of experiment [9] is TTC27-Tetratricopeptide repeat protein 27 (human, UniProt Q6P3X3 1-843).
Experiment [10] concerns the target T5, GAL-galanin prepropeptide (GAL) (human, UniProt P22466 1-123, limits assumed).
T5 sequence (looked up): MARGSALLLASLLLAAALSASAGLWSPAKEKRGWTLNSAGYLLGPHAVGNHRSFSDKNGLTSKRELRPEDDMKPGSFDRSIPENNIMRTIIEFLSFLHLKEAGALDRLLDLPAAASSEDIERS

The target in experiment [11] is T6, CSF3-Granulocyte colony-stimulating factor (human, UniProt P09919 31-207, limits assumed).
T6 sequence (looked up): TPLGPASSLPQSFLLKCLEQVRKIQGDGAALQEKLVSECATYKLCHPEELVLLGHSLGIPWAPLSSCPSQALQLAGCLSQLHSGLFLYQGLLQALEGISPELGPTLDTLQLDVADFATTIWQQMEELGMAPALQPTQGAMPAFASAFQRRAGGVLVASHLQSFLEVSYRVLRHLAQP

Experiment [12] concerns the target T7, GHRL-ghrelin/obestatin preprohormone (GHRL) (human, UniProt Q9UBU3 1-117, limits assumed).
T7 sequence (looked up): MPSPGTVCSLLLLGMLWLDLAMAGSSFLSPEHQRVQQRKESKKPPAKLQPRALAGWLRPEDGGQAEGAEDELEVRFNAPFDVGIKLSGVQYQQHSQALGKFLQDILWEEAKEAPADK

HPCAL4-hippocalcin like 4 (HPCAL4), sequence (Q9UM19 whole entry): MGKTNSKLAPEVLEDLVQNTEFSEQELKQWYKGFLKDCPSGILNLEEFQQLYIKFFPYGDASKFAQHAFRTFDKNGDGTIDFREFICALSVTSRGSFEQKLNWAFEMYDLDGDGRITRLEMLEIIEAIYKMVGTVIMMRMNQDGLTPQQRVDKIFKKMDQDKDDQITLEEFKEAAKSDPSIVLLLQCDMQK

B1: 3× Flag-3×MBT (designed binder)
chain: EEWSSSQPATGEKKECWSWESYLEEQKAITAPVSLFQDSQAVTHNKNGFKLGMKLEGIDPQHPSMYFILTVAEVCGYRLRLHFDGYSECHDFWVNANSPDIHPAGWFEKTGHKLQPPKGYKEEEFSWSQYLRSTRAQAAPKHLFVSQSHSPPPLGFQVGMKLEAVDRMNPSLVCVASVTDVVDSRFLVHFDNWDDTYDYWCDPSSPYIHPVGWCQKQGKPLTPPQDYPDPDNFCWEKYLEETGASAVPTWAFKVRPPHSFLVNMKLEAVDRRNPALIRVASVEDVEDHRIKIHFDGWSHGYDFWIDADHPDIHPAGWCSKTGHPLQPPLGPREPSSASPGG
notes: also called Flag-tagged 3×MBT; 3xFlag-3xMBT; not shown: made by PreScission cleavage of GST-3× Flag-3×MBT
In the case of B1, the “GST Average SNR” value is -0.451 in experiment [1]; 0.815 in experiment [2]; 1.09 in [3]; 0.224 in [4]; -0.871 in experiment [5]; -0.007 in experiment [6]. Moreover, the “GST Average SNR” value in experiment [7] is 1.3; in experiment [8], 1.23; in experiment [9], 0.496; in [10], -0.0625; in experiment [11] it was 1.27; in experiment [12], 0.402.

The values are drawn from patent US20140274782A1 (Stanford University, published 2014).
